Experimental data published in patent US20110113509, “RATIONALLY-DESIGNED MEGANUCLEASES FOR MAIZE GENOME ENGINEERING” (PRECISION BIOSCIENCES, INC., published 2011).

Tests used:
LIG-34+ meganuclease = biological target: T1, LIG-34+ meganuclease (Artificial Sequence (derived from …)); assay: cleavage_in_vitro; C50, enzyme to cut 50% of 10 nM linearized pUC19 substrate in 1 h; 37 C, SA buffer pH 8.0, 100 mM NaCl, 5 mM MgCl2, 5 mM EDTA; settings: tags: C-terminal 6xHis; N-terminal SV40 NLS; inferred)
T1 chain: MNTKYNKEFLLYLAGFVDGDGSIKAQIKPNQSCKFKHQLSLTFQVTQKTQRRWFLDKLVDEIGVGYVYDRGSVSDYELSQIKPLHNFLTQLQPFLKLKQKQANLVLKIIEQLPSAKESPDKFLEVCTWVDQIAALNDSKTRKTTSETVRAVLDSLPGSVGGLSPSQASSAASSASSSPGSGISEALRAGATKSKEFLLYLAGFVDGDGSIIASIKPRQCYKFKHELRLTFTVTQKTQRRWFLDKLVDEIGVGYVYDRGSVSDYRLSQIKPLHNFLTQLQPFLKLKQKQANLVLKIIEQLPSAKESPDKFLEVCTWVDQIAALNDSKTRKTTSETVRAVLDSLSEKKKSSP
Experimental: (§1) The LIG-34 meganucleases were assayed for in vitro activity by incubation with linear, double-stranded DNA substrates containing the meganuclease recognition sequence. Synthetic oligonucleotides corresponding to both sense and antisense strands of the LIG-34 recognition site (SEQ ID NO: 2, SEQ ID NO: 3) were annealed and cloned into the SmaI site of the pUC19 plasmid by blunt-end ligation. The plasmid substrate was linearized with XmnI concurrently with the meganuclease digest. The enzyme digests contained 5 μl of 0.05 μM DNA substrate, 5 μl of meganuclease at varying concentrations (diluted in SA buffer, see below), 14.5 μl SA buffer, and 0.5 μl XmnI. LIG-34 enzyme concentration was varied from 5-400 nM (final concentration). Digests were incubated at 37° C. for 1 hour. Digests were stopped by adding 0.3 mg/ml Proteinase K and 0.5% SDS, and incubated for one hour at 37° C. Digests were analyzed on 1.5% agarose and visualized by ethidium bromide staining.
(§2) Digestion of the linearized plasmid with LIG34, LIG34+ or LIG34++ meganuclease produced two bands on the gel of the sizes corresponding to a simple cut at the LIG-34 site. All of the LIG-34 meganucleases efficiently cut the plasmid substrate harboring the LIG-34 recognition site. […] Thus, while all three enzymes efficiently cleave the LIG-34 site sequence, they do so with varying activity levels (LIG-34<LIG-34+<LIG-34++).

LIG-34 meganuclease = biological target: T2, LIG-34 meganuclease (Artificial Sequence (derived from …)); assay: as above; settings: tags: C-terminal 6xHis; N-terminal SV40 NLS; inferred)
T2 chain: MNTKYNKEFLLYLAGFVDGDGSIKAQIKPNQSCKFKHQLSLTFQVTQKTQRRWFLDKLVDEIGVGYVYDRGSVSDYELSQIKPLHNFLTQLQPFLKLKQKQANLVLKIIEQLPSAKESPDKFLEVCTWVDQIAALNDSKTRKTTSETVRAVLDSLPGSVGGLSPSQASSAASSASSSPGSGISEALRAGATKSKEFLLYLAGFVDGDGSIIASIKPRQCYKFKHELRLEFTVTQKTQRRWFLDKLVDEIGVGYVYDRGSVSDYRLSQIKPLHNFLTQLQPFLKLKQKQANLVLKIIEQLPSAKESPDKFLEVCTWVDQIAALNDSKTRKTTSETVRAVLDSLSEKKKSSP
Experimental: as §1, §2

B1: LIG-34 recognition site (dsDNA)
DNA 1: TACGCGTACGTGTGAGGTATAT
DNA 2: ATATACCTCACACGTACGCGTA
What does the source list for B1?
EC50 (LIG-34+ meganuclease): ~13 nM; EC50 (LIG-34 meganuclease): ~16 nM
